Each block holds one molecule with its values, some of them ahead of it.
How the values were obtained:
[1] = target: GIRK1(N217D)/4 hetero-tetramers, purified and reconstituted into proteoliposomes and planar lipid bilayers (human) (UniProt P48549); conditions: scale: not given
[2] = target: GIRK1/4 hetero-tetramers, purified and reconstituted into proteoliposomes and planar lipid bilayers (human) (UniProt P48549)
[3] = target: GIRK4 homo-tetramers, purified and reconstituted into proteoliposomes and planar lipid bilayers (human) (UniProt P48544)
[4] = target: GIRK4 homo-tetramers, purified and reconstituted into proteoliposomes and planar lipid bilayers (human) (UniProt P48544); remark: listed apart in the source
[5] = target: the molecule itself; experiment: SEC; fluorescent size-exclusion chromatography (FSEC) of solubilized HEK293T cell lysate, Superose 6 10/300 GL; 50 mM HEPES-KOH pH 7.35, 150 mM KCl, 4% DM for solubilization; GFP fluorescence followed
[6] = target: T1, GIRK1-His (human full-length GIRK1 with C-terminal PreScission site, eGFP and deca-histidine tag) (human, UniProt P48549 1-501); experiment: SEC; purified GIRK1/4 after PreScission cleavage of eGFP and tags, Superose 6 10/300 GL in 20 mM Tris-HCl pH 7.5, 150 mM KCl, 0.2% DM, 20 mM DTT, 1 mM EDTA; fractions of the peak run on 12% SDS-PAGE, band intensities compared; conditions: both partners purified
T1 construct: G protein gated inward rectifier K+ channel subunit GIRK1, human, full length; also called His-tagged GIRK1; GIRK1 subunit; source: HEK293S GnTI- cells, BacMam transduced together with GIRK4-1D4 (1:1), solubilized in DM; not shown: eGFP, C-terminal, kept; His10, C-terminal, kept
T1 sequence (looked up): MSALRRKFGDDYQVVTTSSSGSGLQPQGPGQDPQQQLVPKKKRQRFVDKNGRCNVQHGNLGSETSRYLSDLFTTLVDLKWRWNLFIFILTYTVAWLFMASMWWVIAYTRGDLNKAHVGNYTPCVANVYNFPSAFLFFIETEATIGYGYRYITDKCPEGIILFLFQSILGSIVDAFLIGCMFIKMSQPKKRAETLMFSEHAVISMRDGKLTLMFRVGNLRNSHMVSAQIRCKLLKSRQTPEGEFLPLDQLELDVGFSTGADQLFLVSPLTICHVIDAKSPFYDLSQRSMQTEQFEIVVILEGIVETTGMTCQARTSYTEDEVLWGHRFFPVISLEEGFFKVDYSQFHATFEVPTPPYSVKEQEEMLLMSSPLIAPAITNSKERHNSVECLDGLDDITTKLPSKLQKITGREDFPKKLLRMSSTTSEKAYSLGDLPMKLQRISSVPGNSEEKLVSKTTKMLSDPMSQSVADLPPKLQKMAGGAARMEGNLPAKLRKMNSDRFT

B1: GIRK4 subunit fused to GFP (GIRK4-1D4-pEG BacMam construct) (natural protein, human, UniProt P48544 1-419, looked up)
chain: MAGDSRNAMNQDMEIGVTPWDPKKIPKQARDYVPIATDRTRLLAEGKKPRQRYMEKSGKCNVHHGNVQETYRYLSDLFTTLVDLKWRFNLLVFTMVYTVTWLFFGFIWWLIAYIRGDLDHVGDQEWIPCVENLSGFVSAFLFSIETETTIGYGFRVITEKCPEGIILLLVQAILGSIVNAFMVGCMFVKISQPKKRAETLMFSNNAVISMRDEKLCLMFRVGDLRNSHIVEASIRAKLIKSRQTKEGEFIPLNQTDINVGFDTGDDRLFLVSPLIISHEINQKSPFWEMSQAQLHQEEFEVVVILEGMVEATGMTCQARSSYMDTEVLWGHRFTPVLTLEKGFYEVDYNTFHDTYETNTPSCCAKELAEMKREGRLLQYLPSPPLLGGCAEAGLDAEAEQNEEDEPKGLGGSREARGSV
notes: G protein gated inward rectifier K+ channel subunit GIRK4, human, full length; A PreScission protease cleavage site stands between GIRK4 and eGFP-1D4; not cut for FSEC; also called GIRK4 homo-tetramers; source: HEK293T, transiently transfected, in solubilized cell lysate (4% DM); not shown: eGFP, C-terminal, kept; 1D4 peptide, C-terminal, kept
stoichiometry N [5]: 4 subunits

B3: GIRK1 subunit fused to GFP (GIRK1-His10-pEG BacMam construct) (natural protein, human, UniProt P48549 1-501, looked up)
chain: T1 sequence (looked up)
notes: G protein gated inward rectifier K+ channel subunit GIRK1, human, full length; A PreScission protease cleavage site stands between GIRK1 and eGFP-His10; not cut for FSEC; also called GIRK1 homo-tetramers; source: HEK293T, transiently transfected, in solubilized cell lysate (4% DM); not shown: eGFP, C-terminal, kept; His10, C-terminal, kept
stoichiometry N [5]: 4 subunits

More lines, now with the values ahead:

Kdb from a fit of the equilibrium gating model (b and θ4,4 fixed) to normalized planar lipid bilayer currents against Ni-NTA-lipid mole fraction at 0, 8 and 32 mM Na+ [1]: 0.0024 | b, cooperativity factor for Gβγ binding, from the fit of the equilibrium gating model to normalized planar lipid bilayer currents [2]: 0.6 | Kdb from a fit of the equilibrium gating model (two Na+ sites permanently occupied) to normalized planar lipid bilayer currents against Ni-NTA-lipid mole fraction at 0, 8 and 32 mM Na+ ([2]; scale: not given): 0.004 | b, cooperativity factor for Gβγ binding, from the fit of the equilibrium gating model to normalized planar lipid bilayer currents [3]: 0.6 | Kdb from a fit of the 25-state equilibrium gating model to normalized planar lipid bilayer currents against Ni-NTA-lipid mole fraction (membrane sGβγ-His10 density) at 0, 8 and 32 mM Na+ ([3]; scale: not given): 0.004 | normalized GIRK4 current in planar lipid bilayers at 0.001 Ni-NTA mole fraction, 0 to 32 mM Na+ (normalized current) [4]: 0.34
Molecule: soluble Gβγ with a deca-histidine-tag instead of its physiological lipid anchor (sGβγ-His10) (from UniProt P62873 1-340; P59768 1-71) (complex)

stoichiometry N [6]: 1 GIRK4 per GIRK1 (2:2 in the tetramer)
B2: GIRK4-1D4 (human full-length GIRK4 with C-terminal PreScission site, eGFP and 1D4 peptide tag) (natural protein, UniProt P48544 1-419, looked up)
chain: B1 chain
notes: G protein gated inward rectifier K+ channel subunit GIRK4, human, full length; also called 1D4-tagged GIRK4; GIRK4 subunit; source: HEK293S GnTI- cells, BacMam transduced together with GIRK1-His (1:1), solubilized in DM; not shown: eGFP, C-terminal, kept; 1D4 peptide, C-terminal, kept
